Measurements from paper PMC9514218 (Protein Science : A Publication of the Protein Society, 2022).
Changes are numbered by the printed parent chain. Ends that are not written are not given here.

T1: SURP1 (res. 48–110) of human SF3A1, wild type (human, UniProt Q15459 48-110)
T1 sequence: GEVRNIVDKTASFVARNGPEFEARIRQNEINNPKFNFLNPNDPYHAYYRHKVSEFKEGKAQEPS

T2: SURP1 (res. 48–110) of human SF3A1, K80D mutant (human, UniProt Q15459 48-110, K80D)
T2 sequence: T1 sequence with K34D

T3: SURP1 (res. 48–110) of human SF3A1, K80Q mutant (human, UniProt Q15459 48-110, K80Q)
T3 sequence: T1 sequence with K34Q

T4: SURP1 (res. 48–110) of human SF3A1, R62E mutant (human, UniProt Q15459 48-110, R62E)
T4 sequence: T1 sequence with R16E

T5: SURP1 (res. 48–110) of human SF3A1, R62Q mutant (human, UniProt Q15459 48-110, R62Q)
T5 sequence: T1 sequence with R16Q

T6: SURP1 (res. 48–110) of human SF3A1, N63E mutant (human, UniProt Q15459 48-110, N63E)
T6 sequence: T1 sequence with N17E

T7: SURP1 (res. 48–110) of human SF3A1, N63Q mutant (human, UniProt Q15459 48-110, N63Q)
T7 sequence: T1 sequence with N17Q


Legend:
[1] = biological target: T1, SURP1 (res. 48–110) of human SF3A1, …; assay: BLI
[2] = biological target: T2, SURP1 (res. 48–110) of human SF3A1, …; assay: BLI
[3] = biological target: T3, SURP1 (res. 48–110) of human SF3A1, …; assay: BLI
[4] = biological target: T4, SURP1 (res. 48–110) of human SF3A1, …; assay: BLI
[5] = biological target: T5, SURP1 (res. 48–110) of human SF3A1, …; assay: BLI
[6] = biological target: T6, SURP1 (res. 48–110) of human SF3A1, …; assay: BLI
[7] = biological target: T7, SURP1 (res. 48–110) of human SF3A1, …; assay: BLI
[8] = biological target: T1, SURP1 (res. 48–110) of human SF3A1, …; assay: NMR solution structure

| Kd [1] | Kd [2] | Kd [3] | Kd [4] | Kd [5] | Kd [6] | Kd [7] | binding result [8] | Binder |
| --- | --- | --- | --- | --- | --- | --- | --- | --- |
| 15.2 µM | 132 µM | 64.2 µM | 393 µM | 187 µM | 251 µM | 139 µM | – | QRPGDPQSAQDKARMDKEYLSLMAELGEAPVPA (peptide, UniProt Q15637 295-327, looked up, also: biotin (position not given here)) [biotin-tagged SF1 S1BRp (res. 295–327)] |
| – | – | – | – | – | – | – | binds | QRPGDPQSAQDKARMDKEYLSLMAELGEAPVPA (domain or fragment, human, UniProt Q15637 295-327, looked up) [S1BR (res. 295–327) of SF1 as it stands in the chimera] |
| 17.3 µM | – | – | – | – | – | – | – | QRPGDPQSAQDKARMDKEYLSLMAELGEAPVPASVGSTSGP (peptide, UniProt Q15637 295-335, looked up, also: biotin (position not given here)) [biotin-tagged SF1 S1BRp (res. 295–335)] |
